Columns and labels:
[1] = ThT assay of autoaggregation of human Tau 40 WT or Tau inhibitor; type: physicochemical
Description: (§1) All inhibitor peptides were purchased from Biomatik. Dissolution was performed at a working concentration of 1.2 mM in deionized water, with a minimum purity of 95% or higher. Human Tau 40 WT was expressed by the pQE80 vector in BL21-DE3 E. coli cells grown to OD600=0.8 in LB medium. Cells were induced with 1 mM IPTG for 3 hours at 37° C. and further incubated for 4 hours, and then cultured E. coli cells were harvested by centrifugation at 5,000 rpm for 20 minutes. The obtained E. coli was resuspended in a dissolution buffer (50 mM NaH2PO4, NaCl 250 mM, 10 mM imidazole pH 8.0) and then dissolved by sonication. Cell lysates were purified by centrifugation at 15,000 rpm for 15 minutes, and 1 ml of 50% Ni-NTA slurry was added to 4 ml of the supernatant and shaken at 4° C. for 60 minutes (200 rpm on a rotator) to mix gently. […]
(§2) Autoaggregation of human Tau 40 WT or Tau inhibitor was tested using 15 μM of human Tau 40 WT protein or 30 μM of inhibitor (SEQ ID NOs: 22 or 32), 8 μM heparin, and 50 μM ThT. ThT fluorescence was measured using a Biotek Synergy H1 reader at an excitation wavelength of 440 nm and emission wavelength of 485 nm. The reactions were incubated at 37° C., and measured every 15 minutes for 70 hours with orbital vibration of 425 cpm continuously. […]

[2] = ThT assay of autoaggregation of Aβ42 WT or variant peptides; type: physicochemical; details: 10 μM peptide in PBS, 50 μM ThT, 37° C.
Description: HFIP was evaporated overnight in a fume hood and then transferred to SpeedVac for 1 hour to remove any remaining traces of HFIP, Tubes containing the peptide film were kept over desiccant at −20° C. until used. Immediately prior to experimental use, lyophilized peptides were dissolved in 0.1% NH4OH to a final concentration of 100 μM and sonicated for 10 minutes in a bath sonicator.
ThT fluorescence was measured using a Biotek Synergy H1 reader at an excitation wavelength of 440 nm and emission wavelength of 485 nm. Reactions were incubated at 37° C. and then shaken for 5 seconds every 10 minutes prior to reading the fluorescence.

human Tau 40 WT = target: T1, human Tau 40 WT (Homo sapiens, UniProt P10636); test: ThT assay, inhibition of human Tau 40 WT autoaggregation by Tau inhibitor; type: biochemical; details: 15 μM Tau protein and 30 μM inhibitor (1:2)
T1 construct: His tag (inferred from Ni-NTA purification and pQE80 vector); made in house; host or cells: E. coli BL21-DE3
T1 sequence (P10636 1-441 isoform P10636-8): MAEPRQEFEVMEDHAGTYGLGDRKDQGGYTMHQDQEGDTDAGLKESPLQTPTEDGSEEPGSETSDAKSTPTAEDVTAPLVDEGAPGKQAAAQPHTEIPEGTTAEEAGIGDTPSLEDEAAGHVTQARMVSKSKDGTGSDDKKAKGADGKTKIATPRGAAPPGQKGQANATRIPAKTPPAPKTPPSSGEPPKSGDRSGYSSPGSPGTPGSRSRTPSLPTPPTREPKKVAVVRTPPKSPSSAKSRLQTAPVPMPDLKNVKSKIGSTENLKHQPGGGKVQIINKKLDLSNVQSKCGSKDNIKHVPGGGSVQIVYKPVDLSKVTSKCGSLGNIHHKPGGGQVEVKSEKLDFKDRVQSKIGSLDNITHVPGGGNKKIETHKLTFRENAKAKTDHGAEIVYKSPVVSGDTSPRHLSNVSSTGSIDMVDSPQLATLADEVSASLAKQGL
Description: as §1, §2

Tau WT: Human Tau 40 WT protein expressed by the pQE80 vector in E. coli
time to peak of ThT binding ([1]; 1 nM of seed added to Tau WT): ≤ 20 h
time to peak of ThT binding ([1]; 15 μM human Tau 40 WT, 8 μM heparin, 50 μM ThT): ≤ 70 h

Aβ42 WT: wild-type Aβ42 peptide, synthetic, purchased from Biomatik
autoaggregation in ThT assay [2]: generated aggregation

TVIVITLVMLKDVQMINKKLK (Tau inhibitor) [SEQ ID NO: 32]
inhibition of Tau WT aggregation (competition assay) (human Tau 40 WT): completely attenuated the aggregation of Tau WT

MDVQMINKKLK (Tau inhibitor) [SEQ ID NO: 22]
inhibition of Tau WT aggregation (competition assay) (human Tau 40 WT): completely attenuated the aggregation of Tau WT

From US20250269058A1, “GENE THERAPY FOR TREATING NEURODEGENERATIVE DISEASES” (ABRAIN, priority 2021, published 2025)
